Test results taken from patent publication US8106004B2, “Methods of inhibiting tumor cell aggressiveness using the microenvironment of human embryonic stem cells” (Children's Memorial Hospital, priority 2006, dated 2012).

B1: rNodal: recombinant Nodal (R&D Systems), used at 100 ng/mL (protein, UniProt Q96S42 238-347, looked up)
Nodal homolog: HHLPDRSQLCRKVKFQVDFNLIGWGSWIIYPKQYNAYRCEGECPNPVGEEFHPTNHAYIQSLLKRYQPHRVPSTCCAPVKTKPLSMLYVDNGRVLLDHHKDMIVEECGCL
B2: rLeftyB: recombinant Lefty-B (protein, UniProt O00292 77-366, looked up)
Left-right determination …: RFSQSFREVAGRFLASEASTHLLVFGMEQRLPPNSELVQAVLRLFQEPVPKAALHRHGRLSPRSAQARVTVEWLRVRDDGSNRTSLIDSRLVSVHESGWKAFDVTEAVNFWQQLSRPRQPLLLQVSVQREHLGPLASGAHKLVRFASQGAPAGLGEPQLELHTLDLRDYGAQGDCDPEAPMTEGTRCCRQEMYIDLQGMKWAKNWVLEPPGFLAYECVGTCQQPPEALAFNWPFLGPRQCIASETASLPMIVSIKEGGRTRPQVVSLPNMRVQKCSCASDGALVPRRLQP

Experiments:
Format in all cases: cell-based, human
[1] = tested on: MDA-MB-231 cells; test: Soft agar / anchorage independent growth assay, MDA-MB-231 cells; details: recombinant Nodal 100 ng/mL
Protocol: The melanoma cell lines are maintained in RPMI 1640 medium (Invitrogen) supplemented with 10% fetal bovine serum (FBS, Gemini Bioproducts) and 0.1% gentamycin sulfate with the exception of C81-61 cells which are maintained in Ham's FIO medium supplemented with 15% FBS, 1X Mito+ (BD Bioscience) and gentamycin sulfate. Normal human melanocytes are purchased (Cascade Biologics) or isolated from neonatal foreskins. […] A single cell suspension is prepared, added to plastic flasks for the adherence of melanocytes and the cells propagated in Medium 254 with Human Melanocyte Growth Supplement (Cascade Biologics) including, 100 units/ml penicillin, 100 μg/ml streptomycin, and 250 ng/mL amphotericin B. The human embryonic stem cell lines are cultured as previously described. […] Briefly, cells are grown in 6-well plates precoated with 0.1% porcine gelatin and containing 1.9×10^5 irradiated mouse embryonic fibroblasts (strain CF-1; ATCC) per well. […] The cultures are determined to be free of mycoplasma contamination using a PCR-based assay (Roche). […] The conditioned matrix is then analyzed by 2-D LDS-PAGE and Western blot directly, or reseeded with melanoma cells and incubated for an additional 3 days. […]

[2] = tested on: C81-61 cells; test: Soft agar colony forming assay, C81-61 cells; details: C81-61 cell line, rNodal
Protocol: (§1) An in vitro colony forming assay was used to analyze colony-forming ability of poorly aggressive C81-61 cells, aggressive C8161 cells, C8161 cells treated with MO^Nodal and C8161 cells treated with MO^Nodal and rescued with recombinant Nodal (100 ng/mL). The assay was conducted using 50,000 cells suspended in 0.35% agarose in RPMI containing 10% serum, which were plated into 6-well dishes on 0.5% agar in the same medium. Colonies grew, and pictures were taken at day 7. After 2 weeks, colonies were stained with Crystal Violet and counted.

[3] = tested on: C8161 cells; test: Soft agar / anchorage independent growth assay, C8161 cells; details: for rescue of inhibition of in vitro clonogenicity: recombinant Nodal 100 ng/mL
Protocol: as §1
The derivation and phenotypic characteristics of the human melanoma cell lines have been previously described. Seftor, et. al., 2002, Clin. Experim. Metastas. 19:233-246; Seftor, et. al., 2005 Cancer Res. 65:10164-10169. The melanoma cell lines are maintained in RPMI 1640 medium (Invitrogen) supplemented with 10% fetal bovine serum (FBS, Gemini Bioproducts) and 0.1% gentamycin sulfate with the exception of C81-61 cells which are maintained in Ham's FIO medium supplemented with 15% FBS, 1X Mito+ (BD Bioscience) and gentamycin sulfate. Normal human melanocytes are purchased (Cascade Biologics) or isolated from neonatal foreskins. Seftor, et. al., 2005. A single cell suspension is prepared, added to plastic flasks for the adherence of melanocytes and the cells propagated in Medium 254 with Human Melanocyte Growth Supplement (Cascade Biologics) including, 100 units/ml penicillin, 100 μg/ml streptomycin, and 250 ng/mL amphotericin B. The human embryonic stem cell lines are cultured as previously described. Thomson, et. al., 1998, Science 282:1145-1147. Briefly, cells are grown in 6-well plates precoated with 0.1% porcine gelatin and containing 1.9×10^5 irradiated mouse embryonic fibroblasts (strain CF-1; ATCC) per well. The cells are maintained in medium containing DMEM/F12 (1:1), 20% knock-out serum replacement, non-essential minimal amino acids, L-glutamine (Invitrogen), […], and 4 ng/ml FGF-2 (R&D Systems), and are split with collagenase (1 mg/ml) before the colonies begin to overlap. The cultures are determined to be free of mycoplasma contamination using a PCR-based assay (Roche). The normal human neonatal epidermal melanocytes (HEMn-LP; Cascade Biologics, Portland Oreg.), myoepithelial cells (Hs 578 Bst; American Type Culture Collection (ATCC), Manassas, Va.) and primary mammary epithelial cells (HMEpC; Cell Applications Inc., San Diego Calif.) were maintained as per distributor instructions. Live umbilical cord blood stem cells (SC00125; New Jersey Stem Cell Resource at Coriell Institute for Medical Research) amniotic fluid derived stem cells (GM00473, GM00957A) and adult bone marrow derived mesenchymal stem cells (Stem Cell Technologies, Vancouver BC, Canada) were maintained under the recommended conditions. The HTR-8/SVneo is a well characterized immortalized human extravillous cytotrophoblast cell line, and was maintained as previously described Graham et al., 1993, Exp. Cell Res. 206:204-211. […] The expression vector for wild type Nodal was kindly provided by Dr. Daniel Constam (Swiss Institute for Experimental Cancer Research (ISREC), Epalinges, Switzerland) and was transfected into C81-61 cells as previously described. Le Good et al., 2005, Curr. Biol. 15:31-36. […]

[4] = tested on: Nodal; test: Nodal expression in C8161 cells (Western blot, real time RT-PCR); details: C8161 exposed 48 hrs to 0-1000 ng/mL recombinant Lefty
Protocol: A determination of the effects of H9 CMTX on Nodal expression in metastatic melanoma (C8161) and breast carcinoma (MDA-MB-231) cells was undertaken. […] Exposure to H9 CMTX similarly abrogates Nodal mRNA expression in the melanoma and breast carcinoma cells (FIG. 9C).
Protein lysates were prepared and quantified as previously described in Hess et al., 2001, Cancer Res. 61:3250-3255. Equal amounts of protein were separated by SDS-polyacrylamide gel electrophoresis under reducing conditions, and the resolved proteins were transferred onto Immobilon-P membranes (Millipore Corp., Bedford, Mass.). Membranes were blocked in 1% TBS, 0.1% Tween 20 (TBS-T) and 5% dry milk powder or 3% gelatin (for Nodal Westerns). Blots were incubated with anti-Nodal or anti-Lefty antibodies (Polyclonal rabbit anti-Nodal (H-110) 1:500 Santa Cruz Biotechnology, Santa Cruz, Calif.; Polyclonal goat anti-Lefty 1:500 R&D Systems, Minneapolis, Minn.), washed in TBS-T, and incubated with the appropriate horseradish peroxidase-labeled secondary antibody. Secondary antibodies were detected by enhanced chemiluminescence (Super Signal; Pierce, Rockford, Ill.) and exposure to autoradiography film (Molecular Technologies, St Louis, Mo.). Nodal protein was detected as two major bands at ˜48 and ˜35 kDa representing precursor and pro-Nodal respectively. Nodal often appeared as multiple bands, likely due to degradation of protein modifications. All experiments were done at least three times.
The derivation and phenotypic characteristics of the human melanoma cell lines have been previously described. Seftor, et. al., 2002, Clin. Experim. Metastas. 19:233-246; Seftor, et. al., 2005 Cancer Res. 65:10164-10169. The melanoma cell lines are maintained in RPMI 1640 medium (Invitrogen) supplemented with 10% fetal bovine serum (FBS, Gemini Bioproducts) and 0.1% gentamycin sulfate with the exception of C81-61 cells which are maintained in Ham's FIO medium supplemented with 15% FBS, 1X Mito+ (BD Bioscience) and gentamycin sulfate. […] The cultures are determined to be free of mycoplasma contamination using a PCR-based assay (Roche). […]

| Molecule | rescue of inhibition of in vitro clonogenicity ([1]; MDA-MB-231 exposed to H9 CMTX) | rescue of inhibition of in vitro clonogenicity ([1]; MDA-MB-231 exposed to H9 Lefty-containing matrix) | colony formation [2] | rescue of inhibition of in vitro clonogenicity ([3]; C8161 exposed to H9 CMTX) | rescue of inhibition of in vitro clonogenicity ([3]; C8161 exposed to H9 Lefty-containing matrix) | rescue of reduced colony formation ([3]; C8161 treated with MONodal, rNodal 100 ng/mL) | Nodal protein expression (Western blot) [4] |
| --- | --- | --- | --- | --- | --- | --- | --- |
| B1 | partially rescued | completely rescued | did not induce colony formation | partially rescued | completely rescued | rescued |  |
| B2 |  |  |  |  |  |  | can inhibit Nodal protein in C8161 cells, but at a higher doses than its hESC counterpart |
